This is an account of results in US20260250371A1 (ULTRAGENYX PHARMACEUTICAL, published 2026).

The data set concerns the molecule itself. Description: X-ray crystal structure of the hFGF23(R179Q):burosumab Fab complex. The method, then: To further characterize the human FGF23-burosumab interaction, x-ray crystallographic study was carried out using fully glycosylated human FGF23 (R179Q) from HEK293S cell supernatant in complex with burosumab Fab fragments also expressed in HEK293S cells. Burosumab IgG heavy and light chains were subjected to papain digestion to separate Fc and Fab fragments, then Protein A to isolate Fab fragments of approximately 50 kDa, according to routine methods (Pierce™ Fab Preparation Kit, Thermo Scientific™, cat #!44985). Fully glycosylated human FGF23 (R179Q) and burosumab Fab fragments were incubated on ice for more than one hour (1:0.8 molar ratio) and the stable complex was isolated by size exclusion chromatography (SEC) followed by evaluation by SDS-PAGE. SEC fractions containing the complex were pooled, concentrated, and stored at −80° C.
Diffraction data was collected from a single crystal at the Advanced Photon Source (APS) synchrotron and processed using autoPROC (autoProc, XDS, POINTLESS, AIMLESS, CCP4, and STARANISO) (see Vonrhein C, Flensburg C, Keller P, Sharff A, Smart O, Paciorek W, Womack T, Bricogne G. Data processing and analysis with the autoPROC toolbox. Acta Crystallogr D Biol Crystallogr. 2011 April; 67(Pt 4):293-302. [doi:10.1107/S0907444911007773]). […]

B1: human FGF23 (R179Q) (ligand, UniProt Q9GZV9 25-251, looked up)
chain: YPNASPLLGSSWGGLIHLYTATARNSYHLQIHKNGHVDGAPHQTIYSALMIRSEDAGFVVITGVMSRRYLCMDFRGNIFGSHYFDPENCRFQHQTLENGYDVYHSPQYHFLVSLGRAKRAFLPGMNPPPYSQFLSRRNEIPLIHFNTPIPRRHTQSAEDDSERDPLNVLKPRARMTPAPASCSQELPSAEDNSPMASDPLGVVRGGRVNTHAGGTGPEGCRPFAKFI
modifications: fully glycosylated (from HEK293S cells)
notes: also called hFGF23(R179Q); rhFGF23(R179Q)
Regarding B1, the binding result was “binds”.
